Measured values reported in patent US20250333441A1, “POLYPEPTIDE INHIBITORS AND USES THEREOF” (Neuracle Science Co., Ltd., priority 2021, published 2025).

B1: LRRC4B (36-713): FLAG-tagged LRRC4B deletion construct, amino acids 36-713 of SEQ ID NO: 2 (SEQ ID NO: 52) (protein)
chain: AGGGGVAVTSAAGGGSPPATSCPVACSCSNQASRVICTRRDLAEVPASIPVNTRYLNLQENGIQVIRTDTFKHLRHLEILQLSKNLVRKIEVGAFNGLPSLNTLELFDNRLTTVPTQAFEYLSKLRELWLRNNPIESIPSYAFNRVPSLRRLDLGELKRLEYISEAAFEGLVNLRYLNLGMCNLKDIPNLTALVRLEELELSGNRLDLIRPGSFQGLTSLRKLWLMHAQVATIERNAFDDLKSLEELNLSHNNLMSLPHDLFTPLHRLERVHLNHNPWHCNCDVLWLSWWLKETVPSNTTCCARCHAPAGLKGRYIGELDQSHFTCYAPVIVEPPTDLNVTEGMAAELKCRTGTSMTSVNWLTPNGTLMTHGSYRVRISVLHDGTLNFTNVTVQDTGQYTCMVTNSAGNTTASATLNVSAVDPVAAGGTGSGGGGPGGSGGVGGGSGGYTYFTTVTVETLETQPGEEALQPRGTEKEPPGPTTDGVWGGGRPGDAAGPASSSTTAPAPRSSRPTEKAFTVPITDVTENALKDLDDVMKTTKIIIGCFVAITFMAAVMLVAFYKLRKQHQLHKHHGPTRTVEIINVEDELPAASAVSVAAAAAVASGGGVGGDSHLALPALERDHLNHHHYVAAAFKAHYSSNPSGGGCGGKGPPGLNSIHEPLLFKSGSKENVQETQI
modifications: FLAG tag
B2: LRRC4B (157-713): FLAG-tagged LRRC4B deletion construct, amino acids 157-713 of SEQ ID NO: 2 (SEQ ID NO: 53) (protein)
chain: LSKLRELWLRNNPIESIPSYAFNRVPSLRRLDLGELKRLEYISEAAFEGLVNLRYLNLGMCNLKDIPNLTALVRLEELELSGNRLDLIRPGSFQGLTSLRKLWLMHAQVATIERNAFDDLKSLEELNLSHNNLMSLPHDLFTPLHRLERVHLNHNPWHCNCDVLWLSWWLKETVPSNTTCCARCHAPAGLKGRYIGELDQSHFTCYAPVIVEPPTDLNVTEGMAAELKCRTGTSMTSVNWLTPNGTLMTHGSYRVRISVLHDGTLNFTNVTVQDTGQYTCMVTNSAGNTTASATLNVSAVDPVAAGGTGSGGGGPGGSGGVGGGSGGYTYFTTVTVETLETQPGEEALQPRGTEKEPPGPTTDGVWGGGRPGDAAGPASSSTTAPAPRSSRPTEKAFTVPITDVTENALKDLDDVMKTTKIIIGCFVAITFMAAVMLVAFYKLRKQHQLHKHHGPTRTVEIINVEDELPAASAVSVAAAAAVASGGGVGGDSHLALPALERDHLNHHHYVAAAFKAHYSSNPSGGGCGGKGPPGLNSIHEPLLFKSGSKENVQETQI
modifications: FLAG tag
B3: LRRC4B (230-713): FLAG-tagged LRRC4B deletion construct, amino acids 230-713 of SEQ ID NO: 2 (SEQ ID NO: 54) (protein)
chain: RLEELELSGNRLDLIRPGSFQGLTSLRKLWLMHAQVATIERNAFDDLKSLEELNLSHNNLMSLPHDLFTPLHRLERVHLNHNPWHCNCDVLWLSWWLKETVPSNTTCCARCHAPAGLKGRYIGELDQSHFTCYAPVIVEPPTDLNVTEGMAAELKCRTGTSMTSVNWLTPNGTLMTHGSYRVRISVLHDGTLNFTNVTVQDTGQYTCMVTNSAGNTTASATLNVSAVDPVAAGGTGSGGGGPGGSGGVGGGSGGYTYFTTVTVETLETQPGEEALQPRGTEKEPPGPTTDGVWGGGRPGDAAGPASSSTTAPAPRSSRPTEKAFTVPITDVTENALKDLDDVMKTTKIIIGCFVAITFMAAVMLVAFYKLRKQHQLHKHHGPTRTVEIINVEDELPAASAVSVAAAAAVASGGGVGGDSHLALPALERDHLNHHHYVAAAFKAHYSSNPSGGGCGGKGPPGLNSIHEPLLFKSGSKENVQETQI
modifications: FLAG tag

Target: FAM19A5 protein (Homo sapiens, UniProt Q7Z5A7)
Test: Co-immunoprecipitation of FLAG-tagged LRRC4 family constructs with recombinant FAM19A5 in HEK293 cells
Format: binding
Settings: HEK293 cells expressing FLAG-tagged construct, recombinant FAM19A5 protein (1 μM) 30 minutes; anti-FLAG immunoprecipitation
Method: To better understand the interaction between FAM19A5 and members of the LRRC4 protein family, HEK293 cells were modified to express a FLAG-tagged member of the LRRC4 protein family, i.e., LRRC4C protein, LRRC4 protein, or LRRC4B protein. Then, the HEK293 cells or primary cortical neurons were treated with recombinant FAM19A5 protein (1 μM) for 30 minutes, and the binding between FAM19A5 protein and the different members of the LRRC4 protein family was assessed using both co-immunoprecipitation and immunofluorescence assays.
For the co-immunoprecipitation assay, cell lysates from the different FAM19A5-treated HEK293 cells were collected and immunoprecipitated with an anti-FLAG antibody, anti-FAM19A5 (1-65) antibody, or a human IgG antibody (control). Immunoprecipitated proteins were immunoblotted with anti-FLAG and anti-FAM19A5 (3-2) antibodies. For the immunofluorescence assay, the HEK293 cells treated with the recombinant FAM19A5 protein were immunostained with anti-FAM19A5 (3-2) (to detect FAM19A5 protein expression) and anti-FLAG antibodies (to detect member of the LRRC4 protein family). The primary cortical neurons treated with the recombinant FAM19A5 protein were immunostained with anti-FAM19A5 (3-2) and anti-LRRC4B antibodies. The nuclei were stained with Hoechst33342 (blue).
To determine the specific motif or domain of the LRRC4B protein that is responsible for the binding to a FAM19A5 protein, various FLAG-tagged LRRC4B deletion constructs were generated (see Table 6 below). HEK293 cells were transfected with the different deletion constructs and then treated with recombinant FAM19A5 protein as described in Example 1. Then, the cell lysates from the different HEK293 cells were immunoprecipitated with the anti-FLAG antibody. The immunoprecipitated proteins were immunoblotted with anti-FLAG and anti-FAM19A5 (3-2) antibodies.
As described in Example 2, all members of the LRRC4 protein family were capable of binding to FAM19A5 protein to varying degrees. Therefore, to compare the bindings domains, the amino acid sequences of the LRRC4B, LRRC4, and LRRC4C proteins were aligned. […] Therefore, to assess whether the corresponding positions of LRRC4 and LRRC4C were important in the binding of these proteins to FAM19A5 protein, cDNAs encoding either (i) LRRC4C protein fragment (amino acids 354-527 of SEQ ID NO: 3; SEQ ID NO: 66) or (ii) LRRC4 protein fragment (amino acids 353-527 of SEQ ID NO: 1; SEQ ID NO: 67) were constructed (see Table 7). HEK293 cells were transfected to express either of the protein fragments and then treated with recombinant FAM19A5 protein as described in Example 1. Then, the cell lysates from the different HEK293 cells were immunoprecipitated with the anti-FLAG antibody. The immunoprecipitated proteins were immunoblotted with anti-FLAG and anti-FAM19A5 (3-2) antibodies.

Sequence of FAM19A5 protein (Q7Z5A7 44-132): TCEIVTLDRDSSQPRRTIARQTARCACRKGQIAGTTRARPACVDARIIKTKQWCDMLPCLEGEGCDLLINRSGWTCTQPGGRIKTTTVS

Binding to FAM19A5 protein (co-immunoprecipitation), able to bind to the FAM19A5 protein:
B1
B2
B3
